B1: Ras-related protein Rab-21 (Mus musculus), P35282 (parent)
chain: MAAAGGGAAAAAGRAYSFKVVLLGEGCVGKTSLVLRYCENKFNDKHITTLQASFLTKKLNIGGKRVNLAIWDTAGQERFHALGPIYYRDSNGAILVYDVTDEDSFQKVKNWVKELRKMLGNEICLCIVGNKIDLEKERHVSIQEAESYAESVGAKHYHTSAKQNKGIEELFLDLCKRMIETAQVDERAKGNGSSQAGAARRGVQIIDDEPQAQSSGGCCSSG

Columns and labels:
itb1_human ITGB1, P05556 [1] = variants of: B1; settings: with itb1_human ITGB1, P05556
ita2_human ITGA2, P17301 = variants of: B1; settings: with ita2_human ITGA2, P17301
itb1_human ITGB1, P05556 [2] = variants of: B1; settings: with itb1_human ITGB1, P05556; remark: listed apart in the source

Sequence of itb1_human ITGB1, P05556 (P05556 whole entry): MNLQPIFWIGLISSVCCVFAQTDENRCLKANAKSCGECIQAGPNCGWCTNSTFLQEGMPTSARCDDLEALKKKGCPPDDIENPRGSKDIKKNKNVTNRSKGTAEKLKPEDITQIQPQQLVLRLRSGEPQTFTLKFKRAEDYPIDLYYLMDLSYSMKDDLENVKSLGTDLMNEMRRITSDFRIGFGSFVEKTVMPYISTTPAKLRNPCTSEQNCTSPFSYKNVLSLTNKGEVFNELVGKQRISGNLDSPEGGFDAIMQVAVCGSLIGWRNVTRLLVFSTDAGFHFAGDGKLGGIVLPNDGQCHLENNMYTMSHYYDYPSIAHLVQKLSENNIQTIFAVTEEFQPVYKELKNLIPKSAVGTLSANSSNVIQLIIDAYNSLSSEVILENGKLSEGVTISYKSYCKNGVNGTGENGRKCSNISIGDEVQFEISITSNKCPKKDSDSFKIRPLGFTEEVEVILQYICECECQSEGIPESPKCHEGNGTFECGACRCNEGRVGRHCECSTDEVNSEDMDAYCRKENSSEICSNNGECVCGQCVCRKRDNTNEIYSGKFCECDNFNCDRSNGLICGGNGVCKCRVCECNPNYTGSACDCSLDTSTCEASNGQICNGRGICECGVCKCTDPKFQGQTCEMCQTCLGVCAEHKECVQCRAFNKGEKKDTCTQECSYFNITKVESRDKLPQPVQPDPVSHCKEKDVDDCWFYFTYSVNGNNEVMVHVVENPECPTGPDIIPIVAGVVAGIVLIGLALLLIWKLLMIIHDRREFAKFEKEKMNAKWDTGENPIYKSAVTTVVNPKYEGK
Sequence of ita2_human ITGA2, P17301 (P17301 whole entry): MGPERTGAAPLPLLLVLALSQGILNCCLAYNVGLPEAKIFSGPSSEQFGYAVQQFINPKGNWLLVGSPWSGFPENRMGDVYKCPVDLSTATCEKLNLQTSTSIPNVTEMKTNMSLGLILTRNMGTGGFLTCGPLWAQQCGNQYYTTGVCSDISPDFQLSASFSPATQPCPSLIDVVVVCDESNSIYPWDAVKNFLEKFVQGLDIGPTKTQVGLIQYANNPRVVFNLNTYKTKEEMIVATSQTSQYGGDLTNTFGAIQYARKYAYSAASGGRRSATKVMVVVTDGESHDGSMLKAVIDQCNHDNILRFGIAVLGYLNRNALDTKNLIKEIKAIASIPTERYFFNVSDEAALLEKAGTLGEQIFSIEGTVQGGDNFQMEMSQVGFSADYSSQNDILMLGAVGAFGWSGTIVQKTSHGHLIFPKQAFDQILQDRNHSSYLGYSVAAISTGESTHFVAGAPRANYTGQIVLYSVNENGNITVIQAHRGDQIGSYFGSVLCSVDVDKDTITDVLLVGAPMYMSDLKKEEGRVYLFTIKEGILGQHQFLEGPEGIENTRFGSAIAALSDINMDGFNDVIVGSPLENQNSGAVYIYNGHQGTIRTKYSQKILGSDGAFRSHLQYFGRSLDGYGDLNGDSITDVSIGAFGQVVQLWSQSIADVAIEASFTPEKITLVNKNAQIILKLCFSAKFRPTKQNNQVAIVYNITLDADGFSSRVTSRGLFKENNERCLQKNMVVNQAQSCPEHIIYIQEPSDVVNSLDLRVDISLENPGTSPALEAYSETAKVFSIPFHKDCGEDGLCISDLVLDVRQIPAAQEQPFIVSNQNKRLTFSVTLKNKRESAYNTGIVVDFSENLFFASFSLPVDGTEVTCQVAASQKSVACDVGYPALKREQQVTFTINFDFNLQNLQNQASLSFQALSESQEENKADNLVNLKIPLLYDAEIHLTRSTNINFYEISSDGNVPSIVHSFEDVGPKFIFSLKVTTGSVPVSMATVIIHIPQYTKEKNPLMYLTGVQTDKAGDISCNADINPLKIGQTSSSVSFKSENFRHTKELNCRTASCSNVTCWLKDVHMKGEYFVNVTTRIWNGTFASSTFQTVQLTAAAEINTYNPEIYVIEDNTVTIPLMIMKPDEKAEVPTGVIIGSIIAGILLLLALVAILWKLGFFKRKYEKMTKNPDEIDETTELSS

effect of a mutation on the interaction (itb1_human ITGB1, P05556 [1])	effect of a mutation on the interaction (ita2_human ITGA2, P17301)	effect of a mutation on the interaction (itb1_human ITGB1, P05556 [2])	Variant
decreasing interaction	decreasing interaction		T31N
	increasing interaction	increasing interaction	Q76L

From IntAct's records for PubMed 16754960
